In patent publication US6531296B1, “Nuclear tyrosine kinase Rak” (The University of North Carolina at Chapel Hill, priority 1995, dated 2003):

Assays:
[1] = biological target: CDC2 (Homo sapiens, UniProt P06493); experiment: In vitro kinase assay of immunoprecipitated CDC2 with Histone H1 as exogenous substrate; assay type: biochemical; parameters: incubated with immunoprecipitated CDC2; endogenous in cells
Experimental: The 110 N-terminal amino acids of Rak were produced as a GST fusion protein (RAKNT:GST) and incubated with immunoprecipitated CDC2, and subjected to an in vitro kinase assay with Histone H1 added as an exogenous substrate, and analyzed by SDS-PAGE. […] This fusion protein was incubated with immunoprecipitated CDC2, and subjected to an in vitro kinase assay with Histone H1 added as an exogenous substrate, and analyzed by SDS-PAGE.
The CDC2 binding domain of RAK appears to be between amino acids 86-110. Since the binding of RAK to CDC2 is exceptionally strong, the biological function of this interaction was explored.

[2] = biological target: T1, Cdk4 (Homo sapiens, UniProt P11802); experiment: Affinity precipitation from BT474 lysate with Rak N-terminal GST fusion protein; assay type: binding; details: BT474 cell lysate
T1 construct: endogenous in cells; host or cells: BT474
Experimental: For affinity precipitations, 250 ug of cell lysate was pre-cleared once with 25 ul of glutathione-sepharose beads (Pharmacia) then once with 25 ul of the same beads containing 2 ug/ml Glutathione S-transferase. The lysate was then incubated with 25 ul of GST-RakNT bound to glutathione-sepharose, in a total volume of 500 ul of NP-40 lysis buffer, for 3 hours at 4° C. The beads were then washed three times in NP-40 Lysis Buffer and the bound proteins were eluted with SDS-PAGE sample loading buffer. pRb binding was assessed by Western blot analysis with the G3-245 antibody at 1 ug/ml.
Because the N-terminus is frequently responsible for protein-protein interactions in Src-related kinases, the proteins that bind to this region were characterized. The N-terminal 110 amino acids of Rak were expressed as a bacterial fusion protein with Glutathione S-transferase, and were incubated with cell lysates from BT474 breast cancer cells. In this assay, binding of RAK to the cyclin-dependent kinases Cdc2 and Cdk4 was detected, but binding to Cdk5, Cdk6, or Cdk7 was not detected (data not shown).

CDC2, sequence (P06493 whole entry, the tested form may be a part): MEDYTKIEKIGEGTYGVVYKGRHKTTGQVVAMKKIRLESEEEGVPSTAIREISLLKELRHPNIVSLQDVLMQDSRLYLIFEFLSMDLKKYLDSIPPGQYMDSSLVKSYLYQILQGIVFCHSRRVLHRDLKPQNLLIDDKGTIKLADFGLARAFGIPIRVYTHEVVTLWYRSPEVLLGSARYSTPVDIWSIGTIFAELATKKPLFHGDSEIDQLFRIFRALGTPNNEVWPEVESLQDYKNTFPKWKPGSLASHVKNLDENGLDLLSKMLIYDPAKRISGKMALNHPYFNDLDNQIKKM
T1 sequence (P11802 whole entry, the tested form may be a part): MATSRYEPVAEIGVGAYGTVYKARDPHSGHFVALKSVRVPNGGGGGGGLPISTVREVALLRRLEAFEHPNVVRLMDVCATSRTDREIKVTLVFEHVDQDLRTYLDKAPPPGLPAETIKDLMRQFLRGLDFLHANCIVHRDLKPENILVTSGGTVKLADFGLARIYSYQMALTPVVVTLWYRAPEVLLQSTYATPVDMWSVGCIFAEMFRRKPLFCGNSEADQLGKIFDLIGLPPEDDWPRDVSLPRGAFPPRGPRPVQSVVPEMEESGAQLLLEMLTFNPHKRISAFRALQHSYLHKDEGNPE

- binding to Cdk4 [2]: did not affect binding
B1: RAKΔ86:GST: RakNT GST fusion protein with amino acids 86-110 (CDC2 binding site) deleted (protein, UniProt P42685 1-85, looked up, fragment)
chain: MSNICQRLWEYLEPYLPCLSTEADKSTVIENPGALCSPQSQRHGHYFVALFDYQARTAEDLSFRAGDKLQVLDTLHEGWWFARHL
modifications: GST fusion
- inhibition of CDC2 histone H1 phosphorylation activity [1]: greatly diminished CDC2 inhibitory activity
